“And” between values parts separate entries of the source, which are not always exact repeats. Equal entries are not always repeated. Where two headings read alike, the source gives them in different places. Positions of bridges follow the written chain, without caps; N, C: chain ends. Non-standard residues stand in square brackets, D forms with d. No end group written: not given here. alpha,alpha'‑meta‑xylylene = alpha,alpha'-meta-xylylene linker (from a,a'-dibromo-meta-xylene) bridging two cysteines via bis-thioether; Bip = N[C@@H](Cc1ccc(-c2ccccc2)cc1)C(=O)O; 2Nal = N[C@@H](Cc1ccc2ccccc2c1)C(=O)O A value given as a limit tells only on which side of the number the result lay.

What all share (assay): fluorescence-based enzyme inhibition assay
Test [1] addresses Calpain-1.
Test [2] addresses T1, Cathepsin L (UniProt P07711 114-333).
Test [3] deals with T2, Cathepsin K (UniProt P43235 115-329).
T2 sequence (looked up): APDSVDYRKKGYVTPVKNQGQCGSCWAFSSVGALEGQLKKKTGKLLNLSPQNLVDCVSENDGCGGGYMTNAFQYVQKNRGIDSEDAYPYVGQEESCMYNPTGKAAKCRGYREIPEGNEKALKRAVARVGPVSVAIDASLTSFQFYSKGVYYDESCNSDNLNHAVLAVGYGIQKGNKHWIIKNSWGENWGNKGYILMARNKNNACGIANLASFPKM

Test [4] has as its target T3, Calpain-1.
T3 chain 1: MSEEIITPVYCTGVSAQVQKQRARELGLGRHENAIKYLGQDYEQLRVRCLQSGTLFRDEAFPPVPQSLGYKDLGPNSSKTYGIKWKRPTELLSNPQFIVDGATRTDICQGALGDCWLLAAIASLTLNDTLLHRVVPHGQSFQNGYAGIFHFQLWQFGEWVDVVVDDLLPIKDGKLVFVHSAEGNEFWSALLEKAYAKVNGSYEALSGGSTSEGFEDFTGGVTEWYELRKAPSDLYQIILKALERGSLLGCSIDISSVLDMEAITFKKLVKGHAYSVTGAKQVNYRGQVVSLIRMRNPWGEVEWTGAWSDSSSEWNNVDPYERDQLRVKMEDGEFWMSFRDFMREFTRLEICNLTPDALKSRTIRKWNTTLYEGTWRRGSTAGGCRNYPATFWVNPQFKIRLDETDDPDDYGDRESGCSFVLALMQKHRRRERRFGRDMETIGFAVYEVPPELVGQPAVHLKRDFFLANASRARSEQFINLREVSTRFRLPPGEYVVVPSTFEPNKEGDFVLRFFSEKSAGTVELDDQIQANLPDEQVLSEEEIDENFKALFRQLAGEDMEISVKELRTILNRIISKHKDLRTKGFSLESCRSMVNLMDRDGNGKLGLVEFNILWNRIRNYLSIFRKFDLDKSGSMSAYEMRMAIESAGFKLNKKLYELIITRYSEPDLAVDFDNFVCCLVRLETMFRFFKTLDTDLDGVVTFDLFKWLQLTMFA
T3 chain 2: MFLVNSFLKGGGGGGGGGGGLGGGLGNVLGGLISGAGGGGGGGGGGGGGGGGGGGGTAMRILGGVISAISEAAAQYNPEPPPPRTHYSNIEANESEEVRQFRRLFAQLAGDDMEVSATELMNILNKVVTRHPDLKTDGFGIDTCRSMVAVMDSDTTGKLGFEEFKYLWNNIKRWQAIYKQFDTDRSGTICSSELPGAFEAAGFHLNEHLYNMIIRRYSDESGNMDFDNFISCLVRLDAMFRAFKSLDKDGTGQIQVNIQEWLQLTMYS

Test [5] addresses T1, Cathepsin L. This is another data set of the same source.
Test [6] has as its target T1, Cathepsin L. This is another data set of the same source.
The target in test [7] is T4, Cathepsin S (UniProt P25774 115-331).
The target of test [8] is T2, Cathepsin K. This is another data set of the same source.
Test [9] has as its target T3, Calpain-1.
Test [10] addresses T1, Cathepsin L. This is another data set of the same source.
Test [11] addresses T4, Cathepsin S. This is another data set of the same source.
Test [12] has as its target T2, Cathepsin K. The source holds these as a separate data set.

T1 sequence (P07711 114-333 limits assumed): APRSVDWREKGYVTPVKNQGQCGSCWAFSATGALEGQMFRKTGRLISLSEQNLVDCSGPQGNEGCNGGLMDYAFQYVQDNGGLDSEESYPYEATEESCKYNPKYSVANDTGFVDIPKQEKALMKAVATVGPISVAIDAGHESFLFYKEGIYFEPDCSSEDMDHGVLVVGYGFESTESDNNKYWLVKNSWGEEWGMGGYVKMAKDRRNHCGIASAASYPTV
T4 sequence (P25774 115-331 limits assumed): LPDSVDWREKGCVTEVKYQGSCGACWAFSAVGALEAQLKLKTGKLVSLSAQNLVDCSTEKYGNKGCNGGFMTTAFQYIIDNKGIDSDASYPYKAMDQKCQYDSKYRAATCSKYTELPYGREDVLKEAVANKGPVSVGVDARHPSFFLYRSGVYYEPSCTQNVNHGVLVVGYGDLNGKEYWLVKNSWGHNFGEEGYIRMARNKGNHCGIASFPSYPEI

For the molecule IPPK[Bip]CELLC (linker 6-10 via alpha,alpha'‑meta‑xylylene) [IPPK(bip)CELLC (SEQ ID NO:82)], the Ki in test [1] was determined as 9.65 µM.

In the case of SCEFRCVMNGF (linker 2-6 via alpha,alpha'‑meta‑xylylene) [SCEFRCVMNGF (SEQ ID NO:3)], the values for the Ki in test [2] and in [3] were 29.4 µM and more than 100 µM, respectively.

Consider SCE[Bip]RCVMNG[2Nal] (linker 2-6 via alpha,alpha'‑meta‑xylylene, also called compound (IIIa)) [SCE(bip)RCVMNG(nap) (SEQ ID NO:9)], for which the Ki in [4] was 19.8 µM.

B1: IPPK(OBn-Y)CELLC (SEQ ID NO:83) (peptide)
peptide: IPPKXCELLC
modifications: Cys6 and Cys10 (i,i+4) linked by alpha,alpha'-meta-xylylene; residue 5 OBn-Y = O-benzyltyrosine
Turning to B1, the results for the Ki in test [1] and in test [5] were 21.3 µM and 16.7 µM, respectively.

The molecule SECFRQCMNGF (linker 3-7 via alpha,alpha'‑meta‑xylylene) [SECFRQCMNGF (SEQ ID NO:2)] gave a Ki in [2] of 84.7 µM.

Turning to QCEVVCKMTGL (linker 2-6 via alpha,alpha'‑meta‑xylylene) [QCEVVCKMTGL (SEQ ID NO:34)], the Ki in test [6] is 46.2 µM; in [7] it was 43.5 µM; in test [8], 76.8 µM.

For the molecule SCEVVCKMTGP (linker 2-6 via alpha,alpha'‑meta‑xylylene) [SCEVVCKMTGP (SEQ ID NO:44)], the Ki in test [7] was 27.8 µM; in test [8], 1.34 µM and 0.659 µM.

For SCEVVCKPTGL (linker 2-6 via alpha,alpha'‑meta‑xylylene) [SCEVVCKPTGL (SEQ ID NO:39)], the Ki in [6] is 48 µM; in test [7], 58.3 µM; in [8], more than 100 µM.

As for SCESVCKMTGL (linker 2-6 via alpha,alpha'‑meta‑xylylene) [SCESVCKMTGL (SEQ ID NO:37)], the Ki was 10.8 µM in test [7] and more than 100 µM in test [8].

With WWEWVCSLMCS (linker 6-10 via alpha,alpha'‑meta‑xylylene, triple mutant) [WWEWVCSLMCS (SEQ ID NO:25)], the Ki in test [9] was found to be 85.5 µM; in test [10], 16.1 µM; in test [11], 6.74 µM; in test [12], 19.5 µM.

B2: WWEWWCSLMCS (SEQ ID NO:26) (peptide)
peptide: WWEWWCSLMCS
modifications: linker 6-10 via alpha,alpha'‑meta‑xylylene
notes: quadruple mutant; also called compound (IVa)
Consider B2, for which the Ki in test [9] was found to be 66.7 µM; in test [10], 28.1 µM; in [11] it was 1.23 µM; in test [12], 37.9 µM.

The values are drawn from patent US20150133367A1 (University of Pennsylvania, published 2015).
